T1: hemagglutinin (HA) of pandemic 2009 H1N1 (pHA, HA69) peptide on HLA-DQA1*01:02 / HLA-DQB1*06:02 (human)
T1 peptide: AMERNAGSGIIISDT

T2: HA69 peptide on HLA DQB1*06:02/DQA1*01:02 (DQ0602) (human)
T2 peptide: AMERNAGSGIIISDT

B1: TCR CATGSYNTDKLIF / CASSPDGTGVGNTIYF (TCR)
alpha TRAV17 TRAJ34 CDR3: CATGSYNTDKLIF
beta TRBV4-2 TRBJ1-3 CDR3: CASSPDGTGVGNTIYF
B2: TCR CIVRVLTNQGGKLIF / CASSFQGLSTDTQYF (TCR)
alpha TRAV26-1 TRAJ23 CDR3: CIVRVLTNQGGKLIF
beta TRBV12-3 TRBJ2-3 CDR3: CASSFQGLSTDTQYF
B3: TCR CLVGDMEYGNKLVF / CASSQAPPSGNEQFF (TCR)
alpha TRAV4 TRAJ47 CDR3: CLVGDMEYGNKLVF
beta TRBV4-2 TRBJ2-1 CDR3: CASSQAPPSGNEQFF
B4: TCR CAARQMDSSYKLIF / CASSVASSSYNEQFF (TCR)
alpha TRAV23/DV6 TRAJ12 CDR3: CAARQMDSSYKLIF
beta TRBV4-2 TRBJ2-1 CDR3: CASSVASSSYNEQFF
B5: TCR CATDTENNARLMF / CSAGGAGPKMQYF (TCR)
alpha TRAV17 TRAJ31 CDR3: CATDTENNARLMF
beta TRBV20-1 TRBJ2-7 CDR3: CSAGGAGPKMQYF
B6: TCR CIVRANTGNQFYF / CASSPDGTGVGNTIYF (TCR)
alpha TRAV26-1 TRAJ49 CDR3: CIVRANTGNQFYF
beta TRBV4-2 TRBJ1-3 CDR3: CASSPDGTGVGNTIYF
B7: TCR CAVSPSDSWGKLQF / CASSYPGLSQETQYF (TCR)
alpha TRAV8-2 TRAJ24 CDR3: CAVSPSDSWGKLQF
beta TRBV5-5 TRBJ2-5 CDR3: CASSYPGLSQETQYF
B8: TCR CVVSEPGTYKYIF / CASSPDGTGVGNTIYF (TCR)
alpha TRAV8-2 TRAJ40 CDR3: CVVSEPGTYKYIF
beta TRBV4-2 TRBJ1-3 CDR3: CASSPDGTGVGNTIYF
B9: TCR CALSGDNAGNNRKLIW / CASNSRLAGGHVAYNEQFF (TCR)
alpha TRAV19 TRAJ38 CDR3: CALSGDNAGNNRKLIW
beta TRBV12-3 TRBJ2-1 CDR3: CASNSRLAGGHVAYNEQFF
B10: TCR CAVSDNPRVQGAQKLVF / CSAAGTGGAGTEAFF (TCR)
alpha TRAV8-6 TRAJ54 CDR3: CAVSDNPRVQGAQKLVF
beta TRBV29-1 TRBJ1-1 CDR3: CSAAGTGGAGTEAFF
B11: TCR CAMRGQDSGYSTLTF / CASSIVRGLYSNQPQHF (TCR)
alpha TRAV14/DV4 TRAJ11 CDR3: CAMRGQDSGYSTLTF
beta TRBV19 TRBJ1-5 CDR3: CASSIVRGLYSNQPQHF
B12: TCR CAVSGGNAGNMLTF / CATQKGDRGQSWGYTF (TCR)
alpha TRAV2 TRAJ39 CDR3: CAVSGGNAGNMLTF
beta TRBV6-1 TRBJ1-2 CDR3: CATQKGDRGQSWGYTF
B13: TCR CIVRVATNQGGKLIF / CASSPQGGLAEQYF (TCR)
alpha TRAV26-1 TRAJ23 CDR3: CIVRVATNQGGKLIF
beta TRBV19 TRBJ2-7 CDR3: CASSPQGGLAEQYF
B14: TCR CIVRVGTNQAGTALIF / CASREQGLDYGYTF (TCR)
alpha TRAV26-1 TRAJ15 CDR3: CIVRVGTNQAGTALIF
beta TRBV19 TRBJ1-2 CDR3: CASREQGLDYGYTF
B15: TCR CVVNGEAPGNQFYF / CASSVASSSYNEQFF (TCR)
alpha TRAV12-1 TRAJ49 CDR3: CVVNGEAPGNQFYF
beta TRBV4-2 TRBJ2-1 CDR3: CASSVASSSYNEQFF
B16: TCR CAVSDGGTSYGKLTF / CASSQGNTGHSPLHF (TCR)
alpha TRAV8-6 TRAJ52 CDR3: CAVSDGGTSYGKLTF
beta TRBV4-3 TRBJ1-6 CDR3: CASSQGNTGHSPLHF
B17: TCR CIVRVVSNQGGKLIF / CASSPQGFDYGYTF (TCR)
alpha TRAV26-1 TRAJ23 CDR3: CIVRVVSNQGGKLIF
beta TRBV19 TRBJ1-2 CDR3: CASSPQGFDYGYTF
B18: TCR CIVRVGTNQGGKLIF / CASSQDRAGTNTEAFF (TCR)
alpha TRAV26-1 TRAJ23 CDR3: CIVRVGTNQGGKLIF
beta TRBV4-2 TRBJ1-1 CDR3: CASSQDRAGTNTEAFF
B19: TCR CAVSPGNNQGGKLIF / CASSTQGAGEAFF (TCR)
alpha TRAV8-2 TRAJ23 CDR3: CAVSPGNNQGGKLIF
beta TRBV19 TRBJ1-1 CDR3: CASSTQGAGEAFF
B20: TCR CIVRVATNQAGTALIF / CASSTQGAFAEAFF (TCR)
alpha TRAV26-1 TRAJ15 CDR3: CIVRVATNQAGTALIF
beta TRBV19 TRBJ1-1 CDR3: CASSTQGAFAEAFF
B21: TCR CAGKENSGGSNYKLTF / CASRVQGARAEAFF (TCR)
alpha TRAV25 TRAJ53 CDR3: CAGKENSGGSNYKLTF
beta TRBV19 TRBJ1-1 CDR3: CASRVQGARAEAFF
B22: TCR CALTMKTSYDKVIF / CASSIGTSGPDTQYF (TCR)
alpha TRAV9-2 TRAJ50 CDR3: CALTMKTSYDKVIF
beta TRBV19 TRBJ2-3 CDR3: CASSIGTSGPDTQYF
B23: …-1 (TCR)
alpha TRAV8-6 TRAJ24 CDR3: CAVSEDDSWGKLQF
beta TRBV29-1 TRBJ1-6 CDR3: CSVARDRNSPLHF
B24: TCR CIVRSQGGSYIPTF / CATSRDTMTSIGTDTQYF (TCR)
alpha TRAV26-1 TRAJ6 CDR3: CIVRSQGGSYIPTF
beta TRBV15 TRBJ2-3 CDR3: CATSRDTMTSIGTDTQYF
B25: TCR861 (TCR)
alpha TRAV13-1 TRAJ50 CDR3: CAASRGTSYDKVIF
beta TRBV29-1 TRBJ2-1 CDR3: CSVRSLYNEQFF
B26: TCR CAASRGTSYDKVIF / CSVDRYYNEQFF (TCR)
alpha TRAV13-1 TRAJ50 CDR3: CAASRGTSYDKVIF
beta TRBV29-1 TRBJ2-1 CDR3: CSVDRYYNEQFF
B27: TCR CAVSEKNTGFQKLVF / CASRKGLGDTDTQYF (TCR)
alpha TRAV8-6 TRAJ8 CDR3: CAVSEKNTGFQKLVF
beta TRBV6-1 TRBJ2-3 CDR3: CASRKGLGDTDTQYF
B28: TCR CAASRGTSYDKVIF / CSVRGLYNEQFF (TCR)
alpha TRAV13-1 TRAJ50 CDR3: CAASRGTSYDKVIF
beta TRBV29-1 TRBJ2-1 CDR3: CSVRGLYNEQFF
B29: TCR CASAYTGTASKLTF / CASSIDLGGRADGGYTF (TCR)
alpha TRAV17 TRAJ44 CDR3: CASAYTGTASKLTF
beta TRBV19 TRBJ1-2 CDR3: CASSIDLGGRADGGYTF
B30: TCR CATGHTGANSKLTF / CASSLQGTPNGNQPQHF (TCR)
alpha TRAV17 TRAJ56 CDR3: CATGHTGANSKLTF
beta TRBV19 TRBJ1-5 CDR3: CASSLQGTPNGNQPQHF
B31: TCR CAVEETSGSRLTF / CASSQPDTRADTQYF (TCR)
alpha TRAV39 TRAJ58 CDR3: CAVEETSGSRLTF
beta TRBV4-2 TRBJ2-3 CDR3: CASSQPDTRADTQYF
B32: TCR108 (TCR)
alpha TRAV8-3 TRAJ24 CDR3: CAVGFTDSWGKLQF
beta TRBV19 TRBJ2-1 CDR3: CASSIDPSGNHYNEQFF
B33: TCR CAATDTGNQFYF / CASSQHGQGNQPQHF (TCR)
alpha TRAV13-1 TRAJ49 CDR3: CAATDTGNQFYF
beta TRBV7-8 TRBJ1-5 CDR3: CASSQHGQGNQPQHF
B34: TCR538 (TCR)
alpha TRAV4 TRAJ42 CDR3: CLVGAPSLYGGSQGNLIF
beta TRBV7-8 TRBJ2-1 CDR3: CASNPAGAVSYNEQFF
B35: …-1 (TCR)
alpha TRAV8-3 TRAJ24 CDR3: CAVGLTDSWGKLQF
beta TRBV19 TRBJ2-1 CDR3: CASSFSKNGNSYNEQFF
B36: TCR CAGRPNSGGSNYKLTF / CASSGQQALYGYTF (TCR)
alpha TRAV35 TRAJ53 CDR3: CAGRPNSGGSNYKLTF
beta TRBV19 TRBJ1-2 CDR3: CASSGQQALYGYTF
B37: TCR CAVGSTDSWGKLQF / CASRLDPTGHMNTEAFF (TCR)
alpha TRAV8-3 TRAJ24 CDR3: CAVGSTDSWGKLQF
beta TRBV19 TRBJ1-1 CDR3: CASRLDPTGHMNTEAFF
B38: TCR285 (TCR)
alpha TRAV13-1 TRAJ49 CDR3: CAATPGRTGNQFYF
beta TRBV4-2 TRBJ2-5 CDR3: CASSQGQGDETQYF
B39: TCR CAMREGHIQGAQKLVF / CASSSGNLNTEAFF (TCR)
alpha TRAV14/DV4 TRAJ54 CDR3: CAMREGHIQGAQKLVF
beta TRBV19 TRBJ1-1 CDR3: CASSSGNLNTEAFF
B40: TCR846 (TCR)
alpha TRAV8-6 TRAJ54 CDR3: CAVSESAQGAQKLVF
beta TRBV19 TRBJ2-3 CDR3: CASSRPGLNTDTQYF
B41: TCR CAVSERGAQKLVF / CSAPSGGGRASGANVLTF (TCR)
alpha TRAV8-6 TRAJ54 CDR3: CAVSERGAQKLVF
beta TRBV20-1 TRBJ2-6 CDR3: CSAPSGGGRASGANVLTF
B42: TCR CAAADTGNQFYF / CASSSHGQGNQPQHF (TCR)
alpha TRAV13-1 TRAJ49 CDR3: CAAADTGNQFYF
beta TRBV7-8 TRBJ1-5 CDR3: CASSSHGQGNQPQHF
B43: TCR CAGRPNSGGSNYKLTF / CASSDQAAWAGYTF (TCR)
alpha TRAV35 TRAJ53 CDR3: CAGRPNSGGSNYKLTF
beta TRBV19 TRBJ1-2 CDR3: CASSDQAAWAGYTF
B44: TCR CAGRPTSGGSNYKLTF / CASSGGQAYYGYTF (TCR)
alpha TRAV35 TRAJ53 CDR3: CAGRPTSGGSNYKLTF
beta TRBV19 TRBJ1-2 CDR3: CASSGGQAYYGYTF
B45: TCR CIASGTYKYIF / CASSKGETGTQWSYEQYF (TCR)
alpha TRAV26-1 TRAJ40 CDR3: CIASGTYKYIF
beta TRBV4-2 TRBJ2-7 CDR3: CASSKGETGTQWSYEQYF
B46: TCR CILRDVLSNFGNEKLTF / CASSQASVSVDTQYF (TCR)
alpha TRAV26-2 TRAJ48 CDR3: CILRDVLSNFGNEKLTF
beta TRBV4-2 TRBJ2-3 CDR3: CASSQASVSVDTQYF
B47: TCR CAASRGTSYDKVIF / CSTQRLYNEQFF (TCR)
alpha TRAV13-1 TRAJ50 CDR3: CAASRGTSYDKVIF
beta TRBV29-1 TRBJ2-1 CDR3: CSTQRLYNEQFF
B48: TCR CAAVGMNGGAQKLVF / CASRSQGWGTEAFF (TCR)
alpha TRAV13-1 TRAJ54 CDR3: CAAVGMNGGAQKLVF
beta TRBV19 TRBJ1-1 CDR3: CASRSQGWGTEAFF
B49: TCR CAASRGTSYDKVIF / CSATGLYNEQFF (TCR)
alpha TRAV13-1 TRAJ50 CDR3: CAASRGTSYDKVIF
beta TRBV20-1 TRBJ2-1 CDR3: CSATGLYNEQFF
B50: TCR CAVNRADSWGKLQF / CASSIDKTGHSNQPQHF (TCR)
alpha TRAV12-2 TRAJ24 CDR3: CAVNRADSWGKLQF
beta TRBV19 TRBJ1-5 CDR3: CASSIDKTGHSNQPQHF
B51: TCR CATDAELGNKLVF / CASSQDRGRGTDTQYF (TCR)
alpha TRAV17 TRAJ47 CDR3: CATDAELGNKLVF
beta TRBV4-2 TRBJ2-3 CDR3: CASSQDRGRGTDTQYF
B52: TCR CVHNAGNMLTF / CASSFQGLSTDTQYF (TCR)
alpha TRAV25 TRAJ39 CDR3: CVHNAGNMLTF
beta TRBV12-3 TRBJ2-3 CDR3: CASSFQGLSTDTQYF
B53: TCR CIVRAGGTSYGKLTF / CAWSPLAGTGAPQPQHF (TCR)
alpha TRAV26-1 TRAJ52 CDR3: CIVRAGGTSYGKLTF
beta TRBV30 TRBJ1-5 CDR3: CAWSPLAGTGAPQPQHF
B54: TCR755 (TCR)
alpha TRAV12-3 TRAJ8 CDR3: CAMSETRFQKLVF
beta TRBV19 TRBJ2-7 CDR3: CASSSTGGNYEQYF

Biological target: T1, hemagglutinin (HA) of pandemic 2009 …
Test: activation reporter or marker

Binder	binding result
B1	no recognition
B2	no recognition
B3	no recognition
B4	no recognition
B5	no recognition
B6	no recognition
B7	no recognition
B8	no recognition
B9	no recognition
B10	no recognition
B11	no recognition
B12	no recognition
B13	no recognition
B14	no recognition
B15	no recognition
B16	no recognition
B17	no recognition
B18	no recognition
B19	no recognition
B20	no recognition

Biological target: T2, HA69 peptide on HLA …
Test: activation reporter or marker

Binder	binding result
B21	recognises
B22	recognises
B23	no recognition
B24	recognises
B25	recognises
B26	recognises
B27	recognises
B28	recognises
B29	recognises
B30	recognises
B31	recognises
B32	recognises
B33	recognises
B34	recognises
B35	no recognition
B36	recognises
B37	recognises

Binder	binding result
B38	recognises
B39	recognises
B40	recognises
B41	recognises
B42	recognises
B43	recognises
B44	recognises
B45	recognises
B46	recognises
B47	recognises
B48	recognises
B49	recognises
B50	recognises
B51	recognises
B52	recognises
B53	recognises
B54	recognises

From article PMC9371724 (2022)
